Source: patent US20020142982

Legend:
[1] = target: Flag-tagged wild-type EDG-1 receptor (UniProt P21453)
[2] = target: GST-i3 polypeptide from EDG-3 (UniProt Q99500)
[3] = test system: GST-i3 polypeptide from EDG-5 [GST: P08515]
GST-i3T236V polypeptide = GST-i3T236V polypeptide (UniProt P21453)
[4] = target: R231K EDG-1 mutant receptor (UniProt P21453)
[5] = target: R233K EDG-1 mutant receptor (UniProt P21453)
[6] = target: T236A EDG-1 mutant receptor (UniProt P21453)
[7] = target: glutathione S-transferase (GST)-EDG-1-i3 (UniProt P21453)
Sequence of glutathione S-transferase (GST)-EDG-1-i3 (P21453 other isoform, or with tags, fused parts or gaps): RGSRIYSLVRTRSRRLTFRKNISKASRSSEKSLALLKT

Sequence of R231K EDG-1 mutant receptor (P21453 whole entry R231K): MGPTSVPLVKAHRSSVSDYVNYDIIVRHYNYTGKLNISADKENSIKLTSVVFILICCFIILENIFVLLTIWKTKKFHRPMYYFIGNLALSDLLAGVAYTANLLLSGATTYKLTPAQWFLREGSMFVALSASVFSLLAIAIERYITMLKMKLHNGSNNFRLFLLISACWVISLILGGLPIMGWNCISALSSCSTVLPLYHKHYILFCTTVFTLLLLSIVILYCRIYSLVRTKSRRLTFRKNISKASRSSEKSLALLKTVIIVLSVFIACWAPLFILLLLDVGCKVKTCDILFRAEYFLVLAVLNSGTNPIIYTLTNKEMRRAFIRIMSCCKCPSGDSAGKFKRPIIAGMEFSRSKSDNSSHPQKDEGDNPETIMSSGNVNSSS
Sequence of T236A EDG-1 mutant receptor (P21453 whole entry T236A): as the sequence (P21453 whole entry R231K) above, with K231R, T236A counted along it
Sequence of R233K EDG-1 mutant receptor (P21453 whole entry R233K): as the sequence (P21453 whole entry R231K) above, with K231R, R233K counted along it
Sequence of Flag-tagged wild-type EDG-1 receptor (P21453 whole entry): as the sequence (P21453 whole entry R231K) above, with K231R counted along it
Sequence of GST-i3 polypeptide from EDG-3 (Q99500 217-243): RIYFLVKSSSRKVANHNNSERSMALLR
Sequence of GST-i3 polypeptide from EDG-5 [GST: P08515] (P08515 whole entry, looked up): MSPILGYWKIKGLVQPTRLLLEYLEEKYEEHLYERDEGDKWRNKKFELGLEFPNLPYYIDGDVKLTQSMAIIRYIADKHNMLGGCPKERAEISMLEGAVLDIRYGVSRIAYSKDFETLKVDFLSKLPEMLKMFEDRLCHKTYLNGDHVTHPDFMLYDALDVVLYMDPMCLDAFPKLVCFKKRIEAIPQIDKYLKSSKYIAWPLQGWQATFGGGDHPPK
Sequence of GST-i3T236V polypeptide (P21453 whole entry T236V, looked up, tested part not stated): as the sequence (P21453 whole entry R231K) above, with K231R, T236V counted along it

Substance	in vitro phosphorylation of immunoprecipitated receptor [1]	in vitro phosphorylation (32P incorporation, SDS-PAGE) [2]	in vitro phosphorylation (32P incorporation, SDS-PAGE) [3]	in vitro phosphorylation (32P-phosphate incorporation) (GST-i3T236V polypeptide)	in vitro phosphorylation of immunoprecipitated receptor [4]	in vitro phosphorylation of immunoprecipitated receptor [5]	in vitro phosphorylation of immunoprecipitated receptor [6]	in vitro phosphorylation (32P incorporation, SDS-PAGE) [7]
recombinant, active Akt	All three mutants were phosphorylated very poorly by the active Akt kinase in an in vitro phosphorylation reaction when compared to the wild-type EDG-1	only the GST-EDG-1-i3 was phosphorylated by Akt	only the GST-EDG-1-i3 was phosphorylated by Akt	^32P-phosphate incorporation into the GST-i3T236V polypeptide was significantly reduced upon incubation with Akt	All three mutants were phosphorylated very poorly by the active Akt kinase in an in vitro phosphorylation reaction when compared to the wild-type EDG-1	All three mutants were phosphorylated very poorly by the active Akt kinase in an in vitro phosphorylation reaction when compared to the wild-type EDG-1	All three mutants were phosphorylated very poorly by the active Akt kinase in an in vitro phosphorylation reaction when compared to the wild-type EDG-1	only the GST-EDG-1-i3 was phosphorylated by Akt
p90^RSK (active kinase)	in vitro phosphorylation with p90^RSK was similar in wild-type as well as in the three mutants	–	–	–	in vitro phosphorylation with p90^RSK was similar in wild-type as well as in the three mutants	in vitro phosphorylation with p90^RSK was similar in wild-type as well as in the three mutants	in vitro phosphorylation with p90^RSK was similar in wild-type as well as in the three mutants	–
